Article PMC7336285, “Metabolite‐based genome‐wide association study enables dissection of the flavonoid decoration pathway of wheat kernels” (Plant Biotechnology Journal, 2020)

Tests used:
[1] = substrate: COc1cc(-c2cc(=O)c3c(O)cc(O)cc3o2)cc(OC)c1O; experiment: LC-MS product assay, Michaelis-Menten fit; assay type: biochemical, Triticum aestivum; conditions: formation of tricin 4′-O-glucoside (product postulated), UDP-glucose 0.75 mM, MgCl2 10 mM, Tris-HCl pH 7.4, 37 °C
[2] = substrate: COc1cc(-c2cc(=O)c3c(O)cc(O[C@@H]4O[C@H](CO)[C@@H](O)[C@H](O)[C@H]4O)cc3o2)cc(OC)c1O; experiment: LC-MS product assay, Michaelis-Menten fit; assay type: biochemical, Triticum aestivum; conditions: formation of tricin 7-O-malonylglucoside, malonyl-CoA 0.03 mM, Tris-HCl pH 7.4, 37 °C

B1: TraesCS1A01G347100 (Triticum aestivum) (protein)
chain: MEAANPNPTVVLHACLGVGHLIPMVELAKLFLLRGVPVVIAVPTPPASTADFFSSTASAVAGLEAANPSIAFHHLPPPDYPDPDPHPFLQMLDLLRLTVPSLLAFLRSLPSVAALVLDLFCIDSLDAAAQTGVPAYIYYTSSAGDLAAFLHLPHHFATTEGSFRDMGKAPLRFPGVPPIPASDMPHTVMDRADPICTIRIGHYGRIPEARGVLVNTYEWLEARAVGALREGVCVPGRPTPPVYCIGPLIVSDSAAAQGERHACLSWLDAQPERSVVFLCFGSMGAVSAAELKEIAHGLENSGHRFLWVVRTPPADPAKFFLPRPEPDLDALLPEGFTERTRDRGMVLKMWAPQVEVLRHAATGAFVTHCGWNSVLEAASAGVPMLCWPQYAEQRLNKEFVVDEMKVGVVMEGYDEELVRAEEVERKVRLVMESEEGEKLRERLALAKEKAAEAMADGGPSRMALAEFLKHSKLST
notes: GST-tagged (pGEX-6p-1), E. coli BL21(DE3), glutathione Sepharose purified, tag cleavage not mentioned
For B1, the Km [1] was 6.49 ± 0.71 µM.

B2: TraesCS2B01G472400 (Triticum aestivum) (protein)
chain: MARLLRTSLVAPSPAGAALHERSLPLTYLDALWLHATPVERVFFYPNATSDVLSNLTDSLSNALAAFYPLAGRLRLTPGAHNRYELHCQPGDGVTFTVAEYHHVGFDELATDEPTEVAKIVPLVPPLPEGGAVLAVQATVLRGGLAIGVTVHHAACDGVSSTHFLRTWAWAAAACSGASAPVPPFVDRSIIRARDDLYDAFTAPRLSSNDDDDGGKPPDSPVVQQLLATFTLSKEHLQSIKEAVAGEAERRGVPLPRATSIIAAFGFIWQCYVRAKPGTDGKAGSSCGGRAYFLLPADHRTRLEPPVPDEYLGNCLGPCIALAPRRDVAAAGADGLFTACAAIATAIDGVVRSGPGCWDGWMERIIEAYTAGDLPLTVAGSPRFRVYDTDFGFGRPAKVDVVSVARTGAMSVAEARSGGGGVEVGISLSAGAMERFNECFADAIASLSS
notes: as for B1
B2 gave a Km [2] of 20.53 ± 1.02 µM and a kcat [2] of 81.72 ± 6.11 s⁻¹.
